B1: Speckle-type POZ protein (Homo sapiens), O43791 (parent)
chain: MSRVPSPPPPAEMSSGPVAESWCYTQIKVVKFSYMWTINNFSFCREEMGEVIKSSTFSSGANDKLKWCLRVNPKGLDEESKDYLSLYLLLVSCPKSEVRAKFKFSILNAKGEETKAMESQRAYRFVQGKDWGFKKFIRRDFLLDEANGLLPDDKLTLFCEVSVVQDSVNISGQNTMNMVKVPECRLADELGGLWENSRFTDCCLCVAGQEFQAHKAILAARSPVFSAMFEHEMEESKKNRVEINDVEPEVFKEMMCFIYTGKAPNLDKMADDLLAAADKYALERLKVMCEDALCSNLSVENAAEILILADLHSADQLKTQAVDFINYHASDVLETSGWKSMVVSHPHLVAEAYRSLASAQCPFLGPPRKRLKQS

Variants of: B1
Details: with gbra6_human GABRA6, Q16445

Row | effect of a mutation on the interaction | Variant
1 | with no effect | F133V

Variants of: B1
Details: with gata1_human GATA1, P15976

Row | effect of a mutation on the interaction | Variant
2 | with no effect | F133V

Variants of: B1
Details: with p66b_human GATAD2B

Row | effect of a mutation on the interaction | Variant
3 | with no effect | F133V

Variants of: B1
Details: with gna11_human GNA11, P29992
Chain of gna11_human GNA11, P29992 (P29992 whole entry): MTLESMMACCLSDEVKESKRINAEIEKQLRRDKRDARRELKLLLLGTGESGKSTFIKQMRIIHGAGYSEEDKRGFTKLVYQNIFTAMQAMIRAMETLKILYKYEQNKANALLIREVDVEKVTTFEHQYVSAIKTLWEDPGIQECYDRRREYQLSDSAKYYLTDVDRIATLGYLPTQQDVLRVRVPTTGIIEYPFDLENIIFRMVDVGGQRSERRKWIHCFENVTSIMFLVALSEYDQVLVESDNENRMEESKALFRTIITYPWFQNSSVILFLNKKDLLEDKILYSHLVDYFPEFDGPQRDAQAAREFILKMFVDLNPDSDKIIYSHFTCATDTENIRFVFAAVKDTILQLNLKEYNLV

Row | effect of a mutation on the interaction | Variant
4 | with no effect | F133V

Variants of: B1
Details: with gna13_human GNA13, Q14344
Chain of gna13_human GNA13, Q14344 (Q14344 whole entry): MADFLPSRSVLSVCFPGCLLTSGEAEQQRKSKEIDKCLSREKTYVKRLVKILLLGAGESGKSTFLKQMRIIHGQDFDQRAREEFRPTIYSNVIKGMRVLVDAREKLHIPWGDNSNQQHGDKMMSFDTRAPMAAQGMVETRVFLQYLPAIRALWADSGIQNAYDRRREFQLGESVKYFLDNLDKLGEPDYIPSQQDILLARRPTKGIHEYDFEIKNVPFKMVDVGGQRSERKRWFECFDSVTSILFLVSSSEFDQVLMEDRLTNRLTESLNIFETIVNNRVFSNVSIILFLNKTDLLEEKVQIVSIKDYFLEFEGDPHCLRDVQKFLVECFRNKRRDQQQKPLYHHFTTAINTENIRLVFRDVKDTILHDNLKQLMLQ

Row | effect of a mutation on the interaction | Variant
5 | with no effect | F133V

Variants of: B1
Details: with gnaq_human GNAQ

Row | effect of a mutation on the interaction | Variant
6 | with no effect | F133V

Variants of: B1
Details: with grm1_human GRM1, Q13255

Row | effect of a mutation on the interaction | Variant
7 | with no effect | F133V

Variants of: B1
Details: with grm3_human GRM3, Q14832

Row | effect of a mutation on the interaction | Variant
8 | with no effect | F133V

Variants of: B1
Details: with gtpb4_human GTPBP4, Q9BZE4

Row | effect of a mutation on the interaction | Variant
9 | with no effect | F133V

Variants of: B1
Details: with h33_human H3-3A

Row | effect of a mutation on the interaction | Variant
10 | with no effect | F133V

Variants of: B1
Details: with hdac1_human HDAC1, Q13547

Row | effect of a mutation on the interaction | Variant
11 | with no effect | F133V

Variants of: B1
Details: with hdac3_human HDAC3, O15379
Chain of hdac3_human HDAC3, O15379 (O15379 whole entry): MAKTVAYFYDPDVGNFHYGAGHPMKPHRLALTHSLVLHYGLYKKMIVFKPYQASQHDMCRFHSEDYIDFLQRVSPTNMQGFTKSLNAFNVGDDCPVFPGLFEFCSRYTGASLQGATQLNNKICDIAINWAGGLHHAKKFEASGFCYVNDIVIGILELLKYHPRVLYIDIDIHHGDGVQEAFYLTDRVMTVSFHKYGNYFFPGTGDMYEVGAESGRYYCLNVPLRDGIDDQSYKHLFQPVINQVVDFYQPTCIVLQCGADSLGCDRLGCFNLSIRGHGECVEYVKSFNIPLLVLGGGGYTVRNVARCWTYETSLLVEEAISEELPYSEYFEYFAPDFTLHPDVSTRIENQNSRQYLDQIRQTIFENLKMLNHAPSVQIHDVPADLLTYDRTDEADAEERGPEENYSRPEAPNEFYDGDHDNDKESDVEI

Row | effect of a mutation on the interaction | Variant
12 | with no effect | F133V

Variants of: B1
Details: with hgf_human HGF

Row | effect of a mutation on the interaction | Variant
13 | with no effect | F133V

Variants of: B1
Details: with h31_human H3C1, P68431

Row | effect of a mutation on the interaction | Variant
14 | with no effect | F133V

Variants of: B1
Details: with hlab_human HLA-B

Row | effect of a mutation on the interaction | Variant
15 | with no effect | F133V

Variants of: B1
Details: with hnf1a_human HNF1A

Row | effect of a mutation on the interaction | Variant
16 | with no effect | F133V

Variants of: B1
Details: with igf1r_human IGF1R

Row | effect of a mutation on the interaction | Variant
17 | with no effect | F133V

Variants of: B1
Details: with il7ra_human IL7R

Row | effect of a mutation on the interaction | Variant
18 | with no effect | F133V

Variants of: B1
Details: with int12_human INTS12, Q96CB8
Chain of int12_human INTS12, Q96CB8 (Q96CB8 whole entry): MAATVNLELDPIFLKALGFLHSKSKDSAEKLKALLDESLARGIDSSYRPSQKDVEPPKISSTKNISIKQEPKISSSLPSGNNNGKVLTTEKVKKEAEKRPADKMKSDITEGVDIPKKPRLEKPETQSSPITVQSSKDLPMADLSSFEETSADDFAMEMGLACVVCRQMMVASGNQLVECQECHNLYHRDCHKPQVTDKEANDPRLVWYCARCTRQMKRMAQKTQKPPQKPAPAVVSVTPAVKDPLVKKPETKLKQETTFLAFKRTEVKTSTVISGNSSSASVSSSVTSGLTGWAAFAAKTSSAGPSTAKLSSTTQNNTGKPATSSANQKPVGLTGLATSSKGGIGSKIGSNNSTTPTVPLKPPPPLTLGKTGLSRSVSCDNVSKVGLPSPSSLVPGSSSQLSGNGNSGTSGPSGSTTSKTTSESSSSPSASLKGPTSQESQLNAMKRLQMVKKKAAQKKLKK

Row | effect of a mutation on the interaction | Variant
19 | with no effect | F133V

Variants of: B1
Details: with ist1_human IST1, P53990
Chain of ist1_human IST1, P53990 (P53990 whole entry): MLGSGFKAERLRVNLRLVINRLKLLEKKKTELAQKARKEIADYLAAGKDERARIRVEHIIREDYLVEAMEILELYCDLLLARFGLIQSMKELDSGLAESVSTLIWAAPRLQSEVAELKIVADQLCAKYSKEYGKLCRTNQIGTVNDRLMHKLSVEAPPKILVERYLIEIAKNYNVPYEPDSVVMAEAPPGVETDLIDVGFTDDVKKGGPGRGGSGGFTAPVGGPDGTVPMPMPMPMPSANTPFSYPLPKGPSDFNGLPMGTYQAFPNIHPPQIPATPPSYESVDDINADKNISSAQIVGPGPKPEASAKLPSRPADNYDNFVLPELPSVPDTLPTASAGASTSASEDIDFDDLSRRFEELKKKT

Row | effect of a mutation on the interaction | Variant
20 | with no effect | F133V

Variants of: B1
Details: with jak1_human JAK1, P23458

Row | effect of a mutation on the interaction | Variant
21 | with no effect | F133V

Variants of: B1
Details: with jak3_human JAK3, P52333

Row | effect of a mutation on the interaction | Variant
22 | with no effect | F133V

Variants of: B1
Details: with kat2a_human KAT2A

Row | effect of a mutation on the interaction | Variant
23 | with no effect | F133V

Variants of: B1
Details: with kdm5a_human KDM5A

Row | effect of a mutation on the interaction | Variant
24 | with no effect | F133V

Variants of: B1
Details: with kdm5c_human KDM5C

Row | effect of a mutation on the interaction | Variant
25 | with no effect | F133V

Variants of: B1
Details: with vgfr2_human KDR

Row | effect of a mutation on the interaction | Variant
26 | with no effect | F133V

Variants of: B1
Details: with lims1_human LIMS1, P48059

Row | effect of a mutation on the interaction | Variant
27 | with no effect | F133V

Variants of: B1
Details: with maga6_human MAGEA6, P43360

Row | effect of a mutation on the interaction | Variant
28 | with no effect | F133V

Variants of: B1
Details: with m3k1_human MAP3K1, Q13233

Row | effect of a mutation on the interaction | Variant
29 | with no effect | F133V

Variants of: B1
Details: with mk10_human MAPK10, P53779

Row | effect of a mutation on the interaction | Variant
30 | with no effect | F133V

Variants of: B1
Details: with mk14_human MAPK14, Q16539

Row | effect of a mutation on the interaction | Variant
31 | with no effect | F133V

Variants of: B1
Details: with mk03_human MAPK3, P27361

Row | effect of a mutation on the interaction | Variant
32 | with no effect | F133V

Variants of: B1
Details: with mk04_human MAPK4, P31152

Row | effect of a mutation on the interaction | Variant
33 | with no effect | F133V

Variants of: B1
Details: with mk06_human MAPK6, Q16659

Row | effect of a mutation on the interaction | Variant
34 | with no effect | F133V

Variants of: B1
Details: with sin1_human MAPKAP1, Q9BPZ7

Row | effect of a mutation on the interaction | Variant
35 | with no effect | F133V

Variants of: B1
Details: with mcl1_human MCL1, Q07820

Row | effect of a mutation on the interaction | Variant
36 | with no effect | F133V

Variants of: B1
Details: with mdm2_human MDM2, Q00987

Row | effect of a mutation on the interaction | Variant
37 | with no effect | F133V

Variants of: B1
Details: with mitf_human MITF

Row | effect of a mutation on the interaction | Variant
38 | with no effect | F133V

Variants of: B1
Details: with mlh1_human MLH1, P40692

Row | effect of a mutation on the interaction | Variant
39 | with no effect | F133V

Variants of: B1
Details: with mtor_human MTOR

Row | effect of a mutation on the interaction | Variant
40 | with no effect | F133V

Variants of: B1
Details: with myb_human MYB

Row | effect of a mutation on the interaction | Variant
41 | with no effect | F133V

Variants of: B1
Details: with mybb_human MYBL2, P10244

Row | effect of a mutation on the interaction | Variant
42 | with no effect | F133V

Variants of: B1
Details: with myc_human MYC

Row | effect of a mutation on the interaction | Variant
43 | with no effect | F133V

Variants of: B1
Details: with mycn_human MYCN

Row | effect of a mutation on the interaction | Variant
44 | with no effect | F133V

Variants of: B1
Details: with ncoa3_human NCOA3, Q9Y6Q9

Row | effect of a mutation on the interaction | Variant
45 | with no effect | F133V

Variants of: B1
Details: with ikba_human NFKBIA

Row | effect of a mutation on the interaction | Variant
46 | with no effect | F133V

Variants of: B1
Details: with nox1_human NOX1, Q9Y5S8
Chain of nox1_human NOX1, Q9Y5S8 (Q9Y5S8 whole entry): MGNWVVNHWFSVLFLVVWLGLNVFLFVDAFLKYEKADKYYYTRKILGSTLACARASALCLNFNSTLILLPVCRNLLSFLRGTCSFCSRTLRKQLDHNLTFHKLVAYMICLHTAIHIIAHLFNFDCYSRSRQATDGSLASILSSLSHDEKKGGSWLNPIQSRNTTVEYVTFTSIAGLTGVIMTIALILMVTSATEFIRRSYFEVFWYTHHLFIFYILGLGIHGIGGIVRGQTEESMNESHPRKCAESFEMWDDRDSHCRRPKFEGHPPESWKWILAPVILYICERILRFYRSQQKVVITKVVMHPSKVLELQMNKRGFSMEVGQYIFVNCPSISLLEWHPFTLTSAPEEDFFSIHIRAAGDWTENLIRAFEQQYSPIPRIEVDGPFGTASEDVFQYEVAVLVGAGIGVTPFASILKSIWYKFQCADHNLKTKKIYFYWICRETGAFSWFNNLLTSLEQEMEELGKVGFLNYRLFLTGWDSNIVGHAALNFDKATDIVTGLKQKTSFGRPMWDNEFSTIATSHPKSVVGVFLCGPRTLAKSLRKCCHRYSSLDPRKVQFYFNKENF

Row | effect of a mutation on the interaction | Variant
47 | with no effect | F133V

Variants of: B1
Details: with npm_human NPM1, P06748
Chain of npm_human NPM1, P06748 (P06748 whole entry): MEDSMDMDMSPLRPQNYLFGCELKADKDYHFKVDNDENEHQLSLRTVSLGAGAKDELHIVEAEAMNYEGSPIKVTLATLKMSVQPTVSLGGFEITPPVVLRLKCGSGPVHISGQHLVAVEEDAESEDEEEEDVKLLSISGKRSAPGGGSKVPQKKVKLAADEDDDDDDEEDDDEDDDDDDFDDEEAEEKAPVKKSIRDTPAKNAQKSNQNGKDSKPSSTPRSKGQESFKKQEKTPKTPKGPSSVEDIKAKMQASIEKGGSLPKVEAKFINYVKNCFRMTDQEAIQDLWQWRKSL

Row | effect of a mutation on the interaction | Variant
48 | with no effect | F133V

Variants of: B1
Details: with nsd3_human NSD3, Q9BZ95

Row | effect of a mutation on the interaction | Variant
49 | with no effect | F133V

Variants of: B1
Details: with ntrk2_human NTRK2, Q16620

Row | effect of a mutation on the interaction | Variant
50 | with no effect | F133V

Variants of: B1
Details: with ntrk3_human NTRK3, Q16288

Row | effect of a mutation on the interaction | Variant
51 | with no effect | F133V

Variants of: B1
Details: with pak3_human PAK3, O75914

Row | effect of a mutation on the interaction | Variant
52 | with no effect | F133V

Variants of: B1
Details: with prkn_human PRKN

Row | effect of a mutation on the interaction | Variant
53 | with no effect | F133V

Variants of: B1
Details: with pb1_human PBRM1, Q86U86
Chain of pb1_human PBRM1, Q86U86 (Q86U86 whole entry): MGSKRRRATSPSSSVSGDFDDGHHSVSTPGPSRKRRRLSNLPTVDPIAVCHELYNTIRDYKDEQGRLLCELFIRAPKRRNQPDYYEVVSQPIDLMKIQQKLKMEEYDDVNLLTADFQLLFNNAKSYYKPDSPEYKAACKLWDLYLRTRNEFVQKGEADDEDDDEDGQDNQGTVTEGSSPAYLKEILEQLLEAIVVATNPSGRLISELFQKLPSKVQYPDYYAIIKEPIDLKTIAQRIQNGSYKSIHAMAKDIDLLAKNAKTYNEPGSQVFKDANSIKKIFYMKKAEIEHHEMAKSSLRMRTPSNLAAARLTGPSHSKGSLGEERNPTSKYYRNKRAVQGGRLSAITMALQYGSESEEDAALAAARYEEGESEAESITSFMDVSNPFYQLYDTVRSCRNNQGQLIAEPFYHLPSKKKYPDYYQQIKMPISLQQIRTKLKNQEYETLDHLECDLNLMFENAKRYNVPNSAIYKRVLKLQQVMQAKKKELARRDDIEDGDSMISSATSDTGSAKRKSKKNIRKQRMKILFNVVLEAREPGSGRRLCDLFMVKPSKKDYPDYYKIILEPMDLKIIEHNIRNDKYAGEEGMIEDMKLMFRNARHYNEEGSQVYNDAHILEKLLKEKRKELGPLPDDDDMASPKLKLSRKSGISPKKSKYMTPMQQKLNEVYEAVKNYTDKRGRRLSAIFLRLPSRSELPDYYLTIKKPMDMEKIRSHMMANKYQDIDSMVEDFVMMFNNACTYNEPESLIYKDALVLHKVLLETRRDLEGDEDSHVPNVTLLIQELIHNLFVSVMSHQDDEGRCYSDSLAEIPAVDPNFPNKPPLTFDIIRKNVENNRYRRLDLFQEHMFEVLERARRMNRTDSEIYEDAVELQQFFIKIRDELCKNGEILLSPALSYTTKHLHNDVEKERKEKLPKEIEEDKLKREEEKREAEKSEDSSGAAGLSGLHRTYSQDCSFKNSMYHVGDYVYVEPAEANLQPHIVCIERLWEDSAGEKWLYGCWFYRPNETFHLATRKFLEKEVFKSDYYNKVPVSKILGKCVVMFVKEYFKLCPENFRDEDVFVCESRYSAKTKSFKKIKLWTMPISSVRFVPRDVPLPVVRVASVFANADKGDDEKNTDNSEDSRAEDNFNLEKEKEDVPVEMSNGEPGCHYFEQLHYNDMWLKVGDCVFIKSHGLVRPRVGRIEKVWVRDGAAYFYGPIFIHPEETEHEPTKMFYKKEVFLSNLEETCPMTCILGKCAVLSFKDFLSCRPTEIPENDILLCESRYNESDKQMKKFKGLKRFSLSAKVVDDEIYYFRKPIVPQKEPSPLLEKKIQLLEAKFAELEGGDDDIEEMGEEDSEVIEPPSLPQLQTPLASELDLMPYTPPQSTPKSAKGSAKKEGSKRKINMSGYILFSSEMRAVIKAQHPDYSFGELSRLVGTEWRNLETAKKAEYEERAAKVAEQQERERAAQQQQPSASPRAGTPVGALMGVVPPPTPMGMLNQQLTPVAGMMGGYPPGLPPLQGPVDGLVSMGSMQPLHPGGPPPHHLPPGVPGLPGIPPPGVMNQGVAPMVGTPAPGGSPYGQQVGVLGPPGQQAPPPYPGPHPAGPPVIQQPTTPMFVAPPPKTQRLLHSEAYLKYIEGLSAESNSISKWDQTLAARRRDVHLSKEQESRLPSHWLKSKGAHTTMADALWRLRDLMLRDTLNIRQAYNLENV

Row | effect of a mutation on the interaction | Variant
54 | with no effect | F133V

Variants of: B1
Details: with pcbp1_human PCBP1, Q15365
Chain of pcbp1_human PCBP1, Q15365 (Q15365 whole entry): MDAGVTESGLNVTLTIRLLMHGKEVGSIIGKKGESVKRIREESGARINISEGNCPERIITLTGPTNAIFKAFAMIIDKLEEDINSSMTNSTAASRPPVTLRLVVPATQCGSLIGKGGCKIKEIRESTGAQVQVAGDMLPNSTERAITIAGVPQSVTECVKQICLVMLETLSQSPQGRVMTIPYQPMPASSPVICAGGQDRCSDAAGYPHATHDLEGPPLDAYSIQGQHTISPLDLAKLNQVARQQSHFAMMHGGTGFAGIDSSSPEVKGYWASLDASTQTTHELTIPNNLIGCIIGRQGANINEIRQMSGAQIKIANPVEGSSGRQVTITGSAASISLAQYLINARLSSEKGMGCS

Row | effect of a mutation on the interaction | Variant
55 | with no effect | F133V

Variants of: B1
Details: with pdcd1_human PDCD1, Q15116

Row | effect of a mutation on the interaction | Variant
56 | with no effect | F133V

Variants of: B1
Details: with pgfrb_human PDGFRB

Row | effect of a mutation on the interaction | Variant
57 | with no effect | F133V

Variants of: B1
Details: with pdk1_human PDK1, Q15118

Row | effect of a mutation on the interaction | Variant
58 | with no effect | F133V

Variants of: B1
Details: with pk3ca_human PIK3CA

Row | effect of a mutation on the interaction | Variant
59 | with no effect | F133V

Variants of: B1
Details: with pk3cb_human PIK3CB

Row | effect of a mutation on the interaction | Variant
60 | with no effect | F133V
